{"source": "the supplement of paper PMC9170038", "test_system": "MS2 coat protein", "test": "apparent KD of MS2 coat protein; designed switch direction (-1 OFF switch, 1 ON switch): -1; higher = weaker reporter binding", "procedure,_shortened": "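Stalled E. coli RNA polymerase transcribed designed RNA switches on Illumina chips, which were then titrated with SNAP-549-labelled MS2 coat protein, doubling from 0.7 or 1.5 nM to 3 µM. Steps lasted from 0.8–1.5 h at the lowest concentration to 10–20 min at the highest. The apparent KD is each design's median over clusters of curve-fitted normalised fluorescence.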", "key": {"[1]": {"conditions": "Eterna round: R95, input ligand: FMN 200 uM"}, "[2]": {"conditions": "Eterna round: R95, input ligand: microRNA oligo, concentration not stated"}, "[3]": {"conditions": "Eterna round: R95, input ligand: none"}, "[4]": {"conditions": "input ligand: microRNA oligo, concentration not stated"}}}
{"sequence": "AGCCCUUGUGUCAGGAUAUGCAUCCUUAAAGGACGGCAGAAGGGACAUGAGGAUCACCCAUGUAAAUAGAAAUU [Onatatge] (puzzle: Brourd's mod of Exclusion 4)", "values": [{"measurement": "apparent KD of MS2 coat protein", "setting": "[1]", "result": 16.2, "unit": "nM"}, {"measurement": "apparent KD of MS2 coat protein", "setting": "[2]", "result": 84, "unit": "nM"}, {"measurement": "apparent KD of MS2 coat protein", "setting": "[3]", "result": 141, "unit": "nM"}]}
{"sequence": "AAUGUUGUUGUGAGGAUAUCGUAGUUAUUUUGAAACGAGAAGGCACAUGAGGAUCACCCAUGUUUGUUGAUGGU [JR_BMOE4_Sub061] (puzzle: Brourd's mod of Exclusion 4)", "values": [{"measurement": "apparent KD of MS2 coat protein", "setting": "[2]", "result": 20.8, "unit": "nM"}]}
{"sequence": "AAGACACAUGAGGAUCACCCAUGUGAGGAUAUUCGAUGCUAAGCGUAAGCUUAGUAUCGGAGAAGGCACAAAGG [Salishxclusion 6 - Jieux - Exclusion 1] (Eterna round: R97, puzzle: Exclusion 1)", "values": [{"measurement": "apparent KD of MS2 coat protein", "setting": "input ligand: FMN 200 uM", "result": 128, "unit": "nM"}, {"measurement": "apparent KD of MS2 coat protein", "setting": "input ligand: none", "result": 48.2, "unit": "nM"}]}
{"sequence": "AAUAAACAUGAGGAUCACCCAUGUCAGGAUAUCCAUUUGUUUUUGUUGGUUUUUUUUUGGAGAAGGGACGCUUA [Lollin - Alpha 1] (puzzle: Exclusion 1)", "values": [{"measurement": "apparent KD of MS2 coat protein", "setting": "[2]", "result": 58.1, "unit": "nM"}]}
{"sequence": "CCAACAAGCUUUUUGCUCGACAUGAGGAUCACCCAUGUAAAAUGGGUAAAUUUAAAUUUAAAUUUAUUUAAAUUUGG [-16.3, -42.5 kcal, A 35%] (Eterna round: R97, puzzle: Sensor, turn-off variant 1)", "values": [{"measurement": "apparent KD of MS2 coat protein", "setting": "input ligand: FMN 200 uM", "result": 505, "unit": "nM"}, {"measurement": "apparent KD of MS2 coat protein", "setting": "input ligand: none", "result": 728, "unit": "nM"}]}
{"sequence": "UUAAUUACGGUGCUUUAACCUCACAUGAGGAUCACCCAUGUGCAGGAUAUCAGCUCGUGUAGAGCUGAGAAGGGCACUGCACCG [ExNG3/11-A3] (Eterna round: R96, puzzle: Exclusion NG 3)", "values": [{"measurement": "apparent KD of MS2 coat protein", "setting": "input ligand: FMN 200 uM", "result": 14, "unit": "nM"}, {"measurement": "apparent KD of MS2 coat protein", "setting": "[4]", "result": 8.05, "unit": "nM"}, {"measurement": "apparent KD of MS2 coat protein", "setting": "input ligand: none", "result": 12.1, "unit": "nM"}]}
{"sequence": "GAUUAACAUGAGGAUCACCCAUGUGAGGAUAUGGACUUGCCCACUUACCCUUUAGAGUCUAGAAGGCGCAUCUC [1986#30] (Eterna round: R97, puzzle: Exclusion 1)", "values": [{"measurement": "apparent KD of MS2 coat protein", "setting": "input ligand: FMN 200 uM", "result": 28.7, "unit": "nM"}, {"measurement": "apparent KD of MS2 coat protein", "setting": "input ligand: none", "result": 20.8, "unit": "nM"}]}
{"sequence": "CCUCAACAUGAGGAUCACCCAUGUCAGGAUAUGCGAAUUUCAUCAAAAGAUGAAAUUUGCAGAAGGGACUAAGC [Omei Ex1 A33] (Eterna round: R97, puzzle: Exclusion 1)", "values": [{"measurement": "apparent KD of MS2 coat protein", "setting": "input ligand: FMN 200 uM", "result": 303, "unit": "nM"}, {"measurement": "apparent KD of MS2 coat protein", "setting": "input ligand: none", "result": 133, "unit": "nM"}]}
{"sequence": "GUGACACAUGAGGAUCACCCAUGUGAGGAUAUGAUACUAUGUACUUCGGUACAUAGUAUCAGAAGGCACAGUGA [Ex1-3: 7] (puzzle: Exclusion 1)", "values": [{"measurement": "apparent KD of MS2 coat protein", "setting": "[2]", "result": 43.2, "unit": "nM"}]}
{"sequence": "AAAACAAAAGGAUAUACAUGAGGAUCACCCAUGUGGCGAUAAAUCGCCGCUAAACCAUGUAGAAGGUUUGCGAA [EX3 A.2] (Eterna round: R97, puzzle: Exclusion 3)", "values": [{"measurement": "apparent KD of MS2 coat protein", "setting": "input ligand: FMN 200 uM", "result": 102, "unit": "nM"}, {"measurement": "apparent KD of MS2 coat protein", "setting": "input ligand: none", "result": 42.6, "unit": "nM"}]}
{"sequence": "AGAUCACAUGAGGAUCACCCAUGUCAGGAUAUCAUCAUUGAAGCUGCGGCUUCAAUGAUGAGAAGGGACAUAAU [E1/2-B3] (Eterna round: R97, puzzle: Exclusion 1)", "values": [{"measurement": "apparent KD of MS2 coat protein", "setting": "input ligand: FMN 200 uM", "result": 105, "unit": "nM"}, {"measurement": "apparent KD of MS2 coat protein", "setting": "input ligand: none", "result": 412, "unit": "nM"}]}
{"sequence": "GUGCUACAUGAGGAUCACCCAUGUCAGGAUAUGCGAAUUUCAUCAAAAGAUGAAAUUUGCAGAAGGGACAACAC [Omei Ex1 A18] (Eterna round: R97, puzzle: Exclusion 1)", "values": [{"measurement": "apparent KD of MS2 coat protein", "setting": "input ligand: FMN 200 uM", "result": 88.2, "unit": "nM"}, {"measurement": "apparent KD of MS2 coat protein", "setting": "input ligand: none", "result": 38.5, "unit": "nM"}]}
{"sequence": "UCCGAAGCAGGAUAUACAUGAGGAUCACCCAUGUGCUUGCAUGGCGUGGGAAGUCAUAGUAGAAGGGCUACGCC [jl-ex3-4.71 ViennaUCT mod] (Eterna round: R97, puzzle: Exclusion 3)", "values": [{"measurement": "apparent KD of MS2 coat protein", "setting": "input ligand: FMN 200 uM", "result": 53.1, "unit": "nM"}, {"measurement": "apparent KD of MS2 coat protein", "setting": "input ligand: none", "result": 33.7, "unit": "nM"}]}
{"sequence": "CGAUGAGGAGUGAGGAUAUCGUGUUCGAAAGAACGUGAGAAGGCACAUGAGGAUCACCCAUGUGAUACUUGUCG [Omei Ex4B A15] (Eterna round: R97, puzzle: Brourd's mod of Exclusion 4)", "values": [{"measurement": "apparent KD of MS2 coat protein", "setting": "input ligand: FMN 200 uM", "result": 60.9, "unit": "nM"}, {"measurement": "apparent KD of MS2 coat protein", "setting": "input ligand: none", "result": 19.6, "unit": "nM"}]}
{"sequence": "CUGAGGUAGCGGUCCUAUGACAUGAGGAUCACCCAUGUACCUUGCUUUGAGCUUUUAGCUCGUCUUAUGAUUCUCGG [Mat - Sensor v3 - turn-off var 1 - JL Mod - D43] (puzzle: Sensor v3, turn-off variant 1)", "values": [{"measurement": "apparent KD of MS2 coat protein", "setting": "[1]", "result": 271, "unit": "nM"}, {"measurement": "apparent KD of MS2 coat protein", "setting": "[2]", "result": 235, "unit": "nM"}, {"measurement": "apparent KD of MS2 coat protein", "setting": "[3]", "result": 446, "unit": "nM"}]}
{"sequence": "CUUGUUUAUGUAGGAUAUGCCUGGCGUGCCUUUGCAGAAGGACAUGAGGAUCACCCAUGUAACAUGAGGCUCACCCAUGUCGCU [salish99_ExNG1_r04_106] (Eterna round: R96, puzzle: Exclusion NG 1)", "values": [{"measurement": "apparent KD of MS2 coat protein", "setting": "input ligand: FMN 200 uM", "result": 434, "unit": "nM"}, {"measurement": "apparent KD of MS2 coat protein", "setting": "[4]", "result": 224, "unit": "nM"}, {"measurement": "apparent KD of MS2 coat protein", "setting": "input ligand: none", "result": 292, "unit": "nM"}]}
{"sequence": "UAUUUACAUGAGGAUCACCCAUGUCAGGAUAUGCUCGAUAUAUGGAAACAUAUAUCGAGCAGAAGGGACUAGCG [Jieuxxlusion 7 - Jieux - Exclusion 1] (Eterna round: R97, puzzle: Exclusion 1)", "values": [{"measurement": "apparent KD of MS2 coat protein", "setting": "input ligand: FMN 200 uM", "result": 152, "unit": "nM"}, {"measurement": "apparent KD of MS2 coat protein", "setting": "input ligand: none", "result": 72.7, "unit": "nM"}]}
{"sequence": "AAGGAACGAGGAUAUGCAGGUUGAGCUCGAGUUCGACCGGAACAUGAGGAUCACCCAUGUAGAAGGUGUAUCCC [Vedibe] (puzzle: Exclusion 2)", "values": [{"measurement": "apparent KD of MS2 coat protein", "setting": "[2]", "result": 24, "unit": "nM"}]}
{"sequence": "CAGUACUGAGGAUAUACAUGAGGAUCACCCAUGUGUAGAUGAAAAUUAAUUUUAUUAUGUAGAAGGCGGUGCUG [JR_Ex3_Sub045] (Eterna round: R97, puzzle: Exclusion 3)", "values": [{"measurement": "apparent KD of MS2 coat protein", "setting": "input ligand: FMN 200 uM", "result": 85.1, "unit": "nM"}, {"measurement": "apparent KD of MS2 coat protein", "setting": "input ligand: none", "result": 23.3, "unit": "nM"}]}
{"sequence": "GAUCGACAUGAGGAUCACCCAUGUCAGGAUAUCGUCACUGGAGCCUCGGCUCCAGUGACGAGAAGGGAUAUAAU [E1/16-A2] (Eterna round: R97, puzzle: Exclusion 1)", "values": [{"measurement": "apparent KD of MS2 coat protein", "setting": "input ligand: FMN 200 uM", "result": 31.6, "unit": "nM"}, {"measurement": "apparent KD of MS2 coat protein", "setting": "input ligand: none", "result": 32, "unit": "nM"}]}
{"sequence": "GCAGGUUAAGUCAGGAUAUACCUAUGGAUACAUAGGUAGAAGGGACAUGAGGAUCACCCAUGUUUCUCAUCUGC [Mod of Eli 2 - Jieux - Brourd's mod of Exclusion 4] (Eterna round: R97, puzzle: Brourd's mod of Exclusion 4)", "values": [{"measurement": "apparent KD of MS2 coat protein", "setting": "input ligand: FMN 200 uM", "result": 61.5, "unit": "nM"}, {"measurement": "apparent KD of MS2 coat protein", "setting": "input ligand: none", "result": 21.7, "unit": "nM"}]}
{"sequence": "AAAUGUUCGGAGGAUAUAGAACGAUUGUCCGAGCUAGAAGGCCGAACAUGAGGAUCACCCAUGUGUACCUUAAA [Tibiares] (puzzle: Exclusion 6)", "values": [{"measurement": "apparent KD of MS2 coat protein", "setting": "[1]", "result": 306, "unit": "nM"}, {"measurement": "apparent KD of MS2 coat protein", "setting": "[2]", "result": 40.1, "unit": "nM"}, {"measurement": "apparent KD of MS2 coat protein", "setting": "[3]", "result": 53.7, "unit": "nM"}]}
{"sequence": "UUUACAAGCUUAUGAUCCCACAUGAGGAUCACCCAUGUUGCUGCCGGUGACGGUAGCAUAACAUAUGCUCGUCUUAU [JL TOV1 3.57] (Eterna round: R97, puzzle: Sensor, turn-off variant 1)", "values": [{"measurement": "apparent KD of MS2 coat protein", "setting": "input ligand: FMN 200 uM", "result": 1570, "unit": "nM"}, {"measurement": "apparent KD of MS2 coat protein", "setting": "input ligand: none", "result": 1840, "unit": "nM"}]}
{"sequence": "AAGCCCUGAGGAUAUCCUUACUCGCACAUGAGGAUCACCCAUGUCCUCCUCCGGGCUUCGGGAGAAGGCAGGUCUC [Megrez-7.7] (Eterna round: R97, puzzle: Exclusion 5)", "values": [{"measurement": "apparent KD of MS2 coat protein", "setting": "input ligand: FMN 200 uM", "result": 40.1, "unit": "nM"}, {"measurement": "apparent KD of MS2 coat protein", "setting": "input ligand: none", "result": 56.6, "unit": "nM"}]}
{"sequence": "UAUGUGUCAGGAUAUUAAUUAGAACAGAAUUUAACAAUAAUUAAGAAGGGACAUGAGGAUCACCCAUGUUCAUC [JR_Ex4_Sub023] (Eterna round: R97, puzzle: Exclusion 4)", "values": [{"measurement": "apparent KD of MS2 coat protein", "setting": "input ligand: FMN 200 uM", "result": 27.9, "unit": "nM"}, {"measurement": "apparent KD of MS2 coat protein", "setting": "input ligand: none", "result": 23.3, "unit": "nM"}]}
{"sequence": "CUAGAUCUUCGGAUCUAGUACAUGAGGAUCACCCAUGUGACGAGUAUAUCUUCAAACAAGCUUUUUGCUCGUCUUAU [Sensor v3 - Turn-off variant 1 - 24] (puzzle: Sensor v3, turn-off variant 1)", "values": [{"measurement": "apparent KD of MS2 coat protein", "setting": "[1]", "result": 37.3, "unit": "nM"}, {"measurement": "apparent KD of MS2 coat protein", "setting": "[2]", "result": 49.5, "unit": "nM"}, {"measurement": "apparent KD of MS2 coat protein", "setting": "[3]", "result": 40.6, "unit": "nM"}]}
